Laboratory results: IntAct's records for PubMed 11259577

B1: Insulin receptor substrate 1 (Rattus norvegicus (Rat)), P35570 (parent)
chain: MASPPDTDGFSDVRKVGYLRKPKSMHKRFFVLRAASEAGGPARLEYYENEKKWRHKSSAPKRSIPLESCFNINKRADSKNKHLVALYTRDEHFAIAADSEAEQDSWYQALLQLHNRAKAHHDGAGGGCGGSCSGSSGVGEAGEDLSYDTGPGPAFKEVWQVILKPKGLGQTKNLIGIYRLCLTSKTISFVKLNSEAAAVVLQLMNIRRCGHSENFFFIEVGRSAVTGPGEFWMQVDDSVVAQNMHETILEAMRAMSDEFRPRTKSQSSSSCSNPISVPLRRHHLNNPPPSQVGLTRRSRTESITATSPASMVGGKPGSFRVRASSDGEGTMSRPASVDGSPVSPSTNRTHAHRHRGSSRLHPPLNHSRSIPMPSSRCSPSATSPVSLSSSSTSGHGSTSDCLFPRRSSASVSGSPSDGGFISSDEYGSSPCDFRSSFRSVTPDSLGHTPPARGEEELSNYICMGGKGASTLTAPNGHYILSRGGNGHRYIPGATMGTSPALTGDEAAGAADLDNRFRKRTHSAGTSPTISHQKTPSQSSVVSIEEYTEMMPAAYPPGGGSGGRLPGYRHSAFVPTHSYPEEGLEMHHLERRGGHHRPDSSNLHTDDGYMPMSPGVAPVPSNRKGNGDYMPMSPKSVSAPQQIINPIRRHPQRVDPNGYMMMSPSGSCSPDIGGGSCSSSSISAAPSGSSYGKPWTNGVGGHHTHALPHAKPPVESGGGKLLPCTGDYMNMSPVGDSNTSSPSECYYGPEDPQHKPVLSYYSLPRSFKHTQRPGEPEEGARHQHLRLSSSSGRLRYTATAEDSSSSTSSDSLGGGYCGARPESSVTHPHHHALQPHLPRKVDTAAQTNSRLARPTRLSLGDPKASTLPRVREQQQQQQQQQQSSLHPPEPKSPGEYVNIEFGSGQPGYLAGPATSRSSPSVRCLPQLHPAPREETGSEEYMNMDLGPGRRATWQESGGVELGRVGPAPPGAASICRPTRSVPNSRGDYMTMQIGCPRQSYVDTSPVAPVSYADMRTGIAAEKVSLPRTTGAAPPPSSTASASASVTPQGAAEQAAHSSLLGGPQGPGGMSAFTRVNLSPNHNQSAKVIRADTQGCRRRHSSETFSAPTRAANTVSFGAGAAGGGSGGGSEDVKRHSSASFENVWLRPGDLGGASKESAPGCGAAGGLEKSLNYIDLDLVKDVKQHPQDCPSQQQSLPPPPPHQPLGSNEGSSPRRSSEDLSTYASINFQKQPEDRQ
partner: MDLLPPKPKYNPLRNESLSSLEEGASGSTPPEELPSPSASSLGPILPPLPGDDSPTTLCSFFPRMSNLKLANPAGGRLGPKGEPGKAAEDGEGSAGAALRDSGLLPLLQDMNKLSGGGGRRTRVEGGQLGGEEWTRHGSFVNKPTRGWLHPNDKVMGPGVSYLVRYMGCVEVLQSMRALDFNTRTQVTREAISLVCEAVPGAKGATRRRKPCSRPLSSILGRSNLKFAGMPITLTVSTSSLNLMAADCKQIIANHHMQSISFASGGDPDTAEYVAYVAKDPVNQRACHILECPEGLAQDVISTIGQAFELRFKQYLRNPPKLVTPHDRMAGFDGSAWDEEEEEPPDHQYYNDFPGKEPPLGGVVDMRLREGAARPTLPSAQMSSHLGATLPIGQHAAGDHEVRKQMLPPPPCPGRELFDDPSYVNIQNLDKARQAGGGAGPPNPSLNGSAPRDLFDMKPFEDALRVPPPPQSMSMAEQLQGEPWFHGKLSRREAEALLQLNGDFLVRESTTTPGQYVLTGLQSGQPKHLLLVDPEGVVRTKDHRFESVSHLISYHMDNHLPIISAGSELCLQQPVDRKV

Variants of: B1
Conditions: with shc1_mouse Shc1, P98083

| effect of a mutation on the interaction | Variant |
| --- | --- |
| with no effect | Y895F |
